# Laboratory results taken from article PMC12651572 (Cells, 2025).
# Key:
# Assay in all cases: ELISA; recombinant human antigen coated at 1 μg/mL on Maxisorp plate overnight; antibodies 2 h at room temperature with shaking; HRP anti-human IgG, TMB, OD 450 nm; EC50 by 4PL fit
# Conditions in all cases: both partners purified
# [1] = target: T1, Recombinant human TSLP (thymic stromal lymphopoietin) (Homo sapiens, UniProt Q969D9)
# T1 construct: thymic stromal lymphopoietin, human, recombinant; The reporter and T cell assays used other lots of recombinant human TSLP (R&D Systems for the reporter assay); source: bought: AcroBiosystems
# [2] = target: T2, Recombinant human IL-4Rα (IL-4 receptor alpha chain) (Homo sapiens, UniProt P24394)
# T2 construct: interleukin-4 receptor subunit alpha, human, recombinant; source: bought: AcroBiosystems
# [3] = target: T3, Recombinant human IL-4Rα/IL-13Rα1 receptor complex (Homo sapiens, UniProt P24394;P78552)
# T3 construct: interleukin-4 receptor subunit alpha, human, recombinant; interleukin-13 receptor subunit alpha-1, human, recombinant; source: bought: AcroBiosystems
binder,measurement,setting,value
"IL4R-dupi parental anti-IL-4Rα antibody (dupilumab Fab arms on IgG1 Fc with K409R) (antibody, V domains shown, variable region of the dupilumab heavy chain; CH1 and hinge are not described; dupilumab light chain; IgG1; Not the dupilumab analogue with native IgG4 Fc, which was used in the mouse study and the FcRn ELISA; also called IL4R-dupi parental antibody; bivalent IL4R-dupi; source: Expi293F, transiently co-transfected, purified (MabSelect SuRe)) VH: EVQLVESGGGLEQPGGSLRLSCAGSGFTFRDYAMTWVRQAPGKGLEWVSSISGSGGNTYYADSVKGRFTISRDNSKNTLYLQMNSLRAEDTAVYYCAKDRLSITIRPRYYGLDVWGQGTTVTVSS VL: DIVMTQSPLSLPVTPGEPASISCRSSQSLLYSIGYNYLDWYLQKSGQSPQLLIYLGSNRASGVPDRFSGSGSGTDFTLKISRVEAEDVGFYYCMQALQTPYTFGQGTKLEIK",binding result,[1],no binding
same,EC50,[2],~0.76 nM
same,EC50,[3],0.19 nM
